Here are results for one molecule from patent publication US20230158109A1, “USE OF CD83 IN COMBINATION THERAPIES” (Colmmune, Inc., priority 2006, published 2023).

The test system of experiment [1] is donor-specific allo-antibody (IgM, IgG). In words: Allo-antibody in transplant recipient sera (staining of donor splenocytes). The format is in vivo, mouse. Conditions: C3H heart in C57BL/6; sera eight days after transplantation. The procedure:
In these experiments, sera were collected from transplant recipients (from control-treated, sCD83-treated and treatment-naïve individuals). Splenocytes were removed from the transplant donor(s) and incubated with the transplant recipient sera. The binding of antibodies from the allo-anti sera to the surface of the transplant donor splenocytes was monitored selectively using antibodies specific for the Fc-fragments of mouse IgM and IgG. […] Stained cells can be analyzed using FACS.
In the transplantation procedure, hearts were removed from C3H mice and transplanted into C57BL/6 mice, which were then either treated with sCD83 or left untreated. Sera were collected from the C57BL/6 transplant recipients eight days after transplantation (the approximate time when untreated mice would typically reject the transplant (i.e., show full tissue rejection)). This recipient sera was then used to stain splenocytes from the C3H donors, and allo-antibody binding was detected with FITC-conjugated antibodies specific to either the anti-IgG or anti-IgM Fc-fragment. […] Sera from untreated transplant recipients was also able to stain C3H-donor-derived splenocytes above control levels.

Experiment [2] has as its system dendritic cells. The settings on record: soluble CD83 4 μg/ml in final maturation step, cited from earlier work.
The subject of experiment [3] is C57BL/6 Hearts in BALB/c Recipients. In words: Intra-abdominal heterotopic heart transplantation, graft survival, C57BL/6 to BALB/c. The experiment is classed as in vivo, mouse. Conditions: sCD83 100 μg i.p. daily day -1 to 7, then every other day to day 28, tacrolimus 8 mg/kg/day oral, MMF 80 mg/kg/day oral. The procedure:
Treatment with tacrolimus was by daily oral administration of a subtherapeutic dose of 8 mg/kg/day, and treatment with MMF was by daily oral administration of a low dose of 80 mg/kg/day.
In further experiments, transplant recipients were treated with a shorter course of administrations and a different route of administration.

Experiment [4] relates to B cells of transplant recipient. In words: Ex vivo proliferation of transplant recipient B-cells. The settings on record: C3H heart in C57BL/6; sCD83 100 μg daily i.p.; B cells day 8, stimulated with LPS. The arrangement: species or system mouse. How it is done:
Antibody Production Protocols for ex vivo Work: B cell proliferation: C57B1/6 mice were given a heterotopic cardiac allograft from a C3H mouse. Mice were then left untreated or were treated with a daily dose of 100 μg of sCD83 by intraperitoneal injection. Mice were then sacrificed on day 8, which was approximately the mean survival time of untreated mice. B-cells were then harvested from the mouse spleens and pure populations of 10^5 B-cells/well were cultured with 2 μg/mL of LPS to stimulate the cells (with no added sCD83). After 48 hours of culture, ^3H-thymidine was added, and after an additional 18-20 hours of culture, the cells were harvested and ^3H-thymidine incorporation was measured.
Eight days after transplantation (when the transplant would typically be rejected in untreated mice), the mice were sacrificed. B cells were purified from recipient mice, cultured, and stimulated with LPS. ^3H-thymidine incorporation was measured as counts per minute (cpm).

The test system of experiment [5] is T cells stimulated with allogeneic mature dendritic cells. Kind of experiment: Regulatory T cell generation by sCD83-treated allogeneic dendritic cells. Conditions: DCs treated with sCD83 50 μg/ml; different DC:T ratios. The format is cell-based, cynomolgous monkeys. How it is done: Regulatory T cells were also prepared using dendritic cells prepared from cynomolgous monkeys, as follows. Cynomolgous monkey myeloid dendritic cells were generated from CD14^+ monocyte cells in the presence of GM-CSF and IL-4 for 7 days; soluble CD83 at 50 ug/ml was added to some cultures on days 3 through 7, and a maturation cocktail of IL-1(3, IL-6, TNF-α and PGE-2 was added on days 5 through 7. T cells (1×10^6/ml) were isolated by negative selection and stimulated at different ratios with the allogeneic mature dendritic cells that had been either treated or untreated with sCD83 (50 μg/ml). Cells were then stained to identify regulatory T cells (i.e. CD4^+CD25^+ Foxp3^+ cells) and analyzed by FACS.

Experiment [6] deals with spleen cells (lymphocytes). In words: KLH restimulation of spleen cells from sCD83-treated EAE mice. The format is in vivo, mouse. The settings on record: sCD83 100 μg daily for ten days, KLH 28 days after last injection, spleen cells ten days later. How it is done: In order to induce EAE, mice were immunized with a peptide derived from myelin oligodendrocyte glycoprotein (MOG), a constituent of the myelin sheath surrounding neurons of the central nervous system, and with pertussis toxin (see, e.g., Zinser et al. (2004) J. Exp. Med. 200: 345-351). Beginning ten days later, the mice were inoculated with soluble CD83 (100 μg) every day for ten days. 28 days after the last injection of soluble CD83, mice were injected subcutaneously with keyhole limpet hemocyanin (“KLH,” 10 μg/mouse). Ten days later, spleen cells were removed from the mice and restimulated with different doses of KLH. Lymphocyte proliferation in response to this stimulation was measured by [^3H]-thymidine incorporation.

Experiment [7] deals with C3H Hearts in C57BL/6 Recipients. Kind of experiment: Heterotopic heart transplantation, graft survival, C3H to C57BL/6.
Protocol: Hearts were removed from donor mice as indicated and transplanted into the peritoneal cavity of recipient mice (i.e., heterotopic transplantation). Recipient mice were treated as indicated, with some treatments beginning prior to transplantation. Survival of the allograft was monitored and scored as follows: “A,” beating strongly; “B,” mild decline in the intensity of pulsation; “C,” noticeable decline in the intensity of pulsation; “D,” complete cessation of cardiac impulses. Mean survival time of the transplanted tissue was determined for each treatment.
In a further set of experiments, C3H mouse hearts were transplanted into the peritoneal cavity of C57BL/6 mice (results shown in Table 3 and FIG. 7). […] Other treatments included subtherapeutic doses of either anti-CD45RB monoclonal antibody (“mAb”) (i.e., 100 μg/mouse every day from days 0 through 14 by intravenous injection) or sirolimus (i.e., 2 mg/kg every day from days 0 through 14 by oral administration (“p.o.”)).
Experiment [8] concerns spleen cells. Kind of experiment: KLH re-stimulation assay, CD83 window of effectiveness. The format is in vivo, CBA mice. Conditions: sCD83 100 μg 10 times every second day; KLH after 11 days; spleen cells ten days later. How it is done:
Mice were evaluated to determine the period of time after administration of CD83 in which a subject would be tolerized to another administered antigen. Soluble CD83 (100 μg) was administered to CBA mice by injection 10 times every second day. After 11 days, treated animals were immunized with keyhole limpet hemocyanin (KLH, 10 μg). Ten days later, spleen cells were removed and re-stimulation assays were performed as described in International patent publication WO 2004/046182, the contents of which are incorporated by reference.

The subject of experiment [9] is mDCs. In words: TNF-α and activation markers in mDCs of PBMCs stimulated with LPS and IFN-γ. The experiment is classed as cell-based, cynomolgus monkeys. The settings on record: PBMCs incubated overnight with sCD83; LPS 1 μg/ml and IFN-γ 100 U/ml for 6 hours. The source says:
We wished to examine the in vitro functional properties of human sCD83 on peripheral blood DCs, monocytes, and T cells. Mature DCs (“mDCs”) from cynomolgus monkeys were identified using FACS with four-color staining as cells that were HLA-DR positive, lineage negative (i.e. CD3, CD20, CD14, and CD16 negative), and CD11c positive. Intracellular TNF-α, IL-6, and surface markers CD83, CD80, CD86, and CCR5 (which are increased in activated, mature DCs) were also monitored.
To evaluate the effect of sCD83 on mDCs, isolated PBMCs (1×10^6 cells) from cynomolgus monkeys were incubated overnight with sCD83. Cells were stimulated with LPS (1 μg/ml) and IFN-γ (100 U/ml) for 6 hours. Intracellular TNF-α levels and surface markers were detected in mDCs using FACS. Results representative of one out of three experiments are shown in FIG. 11; results were expressed as % positive cells and mean fluorescence units (MFU).

“Also recorded” adds a separate entry of the source.

B1: sCD83: recombinant extracellular domain of human CD83 cleaved from GST fusion, with four extra amino acids (Gly-Ser-Pro-Gly) at the amino terminal (protein, listed as Homo sapiens)
chain: GSPGTPEVKVACSEDVDLPCTAPWDPQVPYTVSWVKLLEGGEERMETPQEDHLRGQHYHQKGQNGSFDAPNERPYSLKIRNTTSCNSGTYRCTLQDPDGQRNLSGKVILRVTGCPAQRKEETFKKYRAE
modifications: printed: Gly-Ser-Pro-Gly; (1)..(125) Extracellular domain of human CD83
notes: recombinant extracellular domain of human CD83 cleaved from GST fusion, with four extra amino acids (Gly-Ser-Pro-Gly) at the amino terminal
Turning to B1, the “Allo-antibody activity (donor-specific binding of IgM or IgG)” value in [1] is given as “low allo-antibody activity; also recorded: can prevent the induction of an allo-antibody response”. Moreover, the CD14 positive cells result in [2] (compared with normally matured DCs) is “increase”. For the same molecule, the “Cell surface expression of CD80” value in [2] (normally matured DCs 96%) is on record as 66%. In addition, in experiment [2] (normally matured DCs 96%), the “Cell surface expression of CD83” value was 30%. Also, the “MST” value in experiment [3] amounted to 15.8 ± 1.0 days; in experiment [7] (sCD83 100 μg i.p. daily days 1-7 then q.o.d. days 8-16, sirolimus 2 mg/kg p.o. days 0-14, anti-CD45RB mAb 100 μg i.v. days 0-14) it was 10.7 ± 1.5 days; in experiment [7] (sCD83 266 ug) it was 14.7 ± 0.6 days; in [7] (sCD83 400 ug), 15 ± 1.0 days. Also, the “Ex vivo B-cell proliferation (3H-thymidine incorporation)” value in experiment [4] was “suppresses”. The “Regulatory T cells generated by dendritic cells” value in [5] is given as “increased numbers of regulatory T cells”. Further, the “Lymphocyte proliferation in response to KLH ([3H]-thymidine incorporation)” value in experiment [6] is on record as “did not induce long-lasting, global immunosuppression”. Further, the “Acute rejection / graft acceptance (in words)” value in [7] (sCD83 100 μg) is recorded as “reduced symptoms of acute rejection”. Besides, the “Tolerization to KLH (re-stimulation assay)” value in experiment [8] is reported as “not tolerized to the antigen”. Moreover, the “In vitro production of TNF-α by mDCs” value in experiment [9] was “suppressed”. Besides, in experiment [9], the “Surface expression of mDC activation markers CD83, CD86, CCR5, and CD80” value is listed as “suppressed”.
